{"source": "patent US9745384B2", "about": "“Peptides useful for modulating histone demethylase function” (The Brigham and Women's Hospital, Inc., priority 2012, dated 2017)", "key": {"[1]": {"tested_on": "CCND1 and CCNE1 expression", "test": "CCND1 and CCNE1 expression in breast cancer cells", "assay_type": "cell-based", "details": "stable MDA-MB-231 cell lines, shRNA-resistant cDNA", "text": "We first established stable MDA-MB-231 cell lines that express similar levels of the mutant or the wild-type full-length NPAC from cDNAs introduced with silent mutations and resistant to NPAC shRNA (data not shown). […] Thus, mutation of the LSD2-interacting residues F218, L219 and L291 of NPAC can disrupt LSD2 and NPAC functions in vivo.\nWe next examined if it is possible to use a small molecule to manipulate the interaction between NPAC and LSD2, thus affecting target gene expression. We have shown that a short mutant NPAC peptide (residues 214-225) can interact with LSD2 with high affinity, however, lost its cofactor activity. NPAC214-225.F217A is expected to be able to competitive inhibit the interaction between endogenous NPAC and LSD2, without stimulating LSD2 demethylase activity (FIG. 25A, right). […] Thus, unable to stimulate the histone demethylase activity of endogenous LSD2, this mutant peptide is a potent inhibitor of LSD2 function by competitively inhibiting LSD2 binding by endogenous NPAC."}, "LSD2": {"molecular_target": "T1, LSD2 (Homo sapiens, UniProt Q8NB78)", "T1 sequence (Q8NB78 1-822)": "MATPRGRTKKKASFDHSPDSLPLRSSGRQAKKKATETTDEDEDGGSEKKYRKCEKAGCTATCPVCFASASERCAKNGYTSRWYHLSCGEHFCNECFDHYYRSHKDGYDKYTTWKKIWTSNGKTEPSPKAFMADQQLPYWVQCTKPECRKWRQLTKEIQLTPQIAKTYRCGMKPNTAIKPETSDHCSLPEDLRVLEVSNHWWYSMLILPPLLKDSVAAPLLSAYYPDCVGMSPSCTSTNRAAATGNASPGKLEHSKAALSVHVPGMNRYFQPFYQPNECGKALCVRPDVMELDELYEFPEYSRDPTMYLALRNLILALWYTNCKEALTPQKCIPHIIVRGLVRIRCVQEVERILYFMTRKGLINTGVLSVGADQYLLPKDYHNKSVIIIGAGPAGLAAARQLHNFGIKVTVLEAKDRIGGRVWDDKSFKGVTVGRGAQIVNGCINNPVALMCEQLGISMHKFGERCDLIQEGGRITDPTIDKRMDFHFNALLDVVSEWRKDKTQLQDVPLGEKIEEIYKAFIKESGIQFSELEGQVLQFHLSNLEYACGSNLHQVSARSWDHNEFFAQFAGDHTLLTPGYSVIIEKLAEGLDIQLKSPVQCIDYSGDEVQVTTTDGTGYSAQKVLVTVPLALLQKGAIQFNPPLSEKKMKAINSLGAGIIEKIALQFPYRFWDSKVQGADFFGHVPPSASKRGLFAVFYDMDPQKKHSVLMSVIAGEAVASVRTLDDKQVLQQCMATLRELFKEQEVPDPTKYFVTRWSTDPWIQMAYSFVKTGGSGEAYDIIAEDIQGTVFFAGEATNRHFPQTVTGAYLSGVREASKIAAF", "test": "H3K4me2 peptide demethylation assay (MALDI-TOF)", "assay_type": "biochemical", "set-up": "0.15 μM or 1.2 μM purified LSD2 (residues 51-822); His6 (cleaved yes); made in house; host or cells: Sf9 insect cells (baculovirus)", "details": "longer H3K4me2 peptide residues 1-44", "method": "FIGS. 12A-12F depict analysis of LSD2 demethylation activity and mutational analysis. […] Demethylation products were analyzed by MALDI-TOF mass spectrometry. 0.15 μM LSD2 can efficiently demethylate the longer H3K4me2 peptide (1-21), but has no detectable activity on the shorter histone peptide (1-15), demethylation of which requires high concentration (1.2 μM) of LSD2. […] It indicates the importance of histone residue 16-21 to LSD2 enzymatic activity and NPAC cofactor activity, supporting our model that NPAC assists enzyme-substrate interactions by creating a new binding site for H3 L20 in the LSD2-NPAC complex. FIG. 12C depicts LSD2 demethylation and NPAC cofactor activity on longer H3K4me2 peptide (1-44). […] The cofactor activity of wild-type NPAC was readily detected under the same conditions. […] It is noted that no obvious cofactor effect of F217A peptide or linker regions was detected in nucleosome and peptide demethylation assays (FIG. 6E and data not shown). […]\nHistone peptides are purchased from Millipore, or custom synthesized. The purity of all peptides are >95% as determined by HPLC and mass spectrometry. […] The products were desalted through a C18 Ziptip (Millipore) and analyzed on a MALDI-TOF micro MX mass spectrometer (ABI 4700, Applied Biosystems). […]"}}, "data": [{"molecule": "NPAC: full-length human NPAC/GLYR1 (protein ID: Q49A26), recombinant, LSD2 cofactor (protein) MAAVSLRLGDLVWGKLGRYPPWPGKIVNPPKDLKKPRGKKCFFVKFFGTEDHAWIKVEQLKPYHAHKEEMIKINKGKRFQQAVDAVEEFLRRAKGKDQTSSHNSSDDKNRRNSSEERSRPNSGDEKRKLSLSEGKVKKNMGEGKKRVSSGSSERGSKSPLKRAQEQSPRKRGRPPKDEKDLTIPESSTVKGMMAGPMAAFKWQPTASEPVKDADPHFHHFLLSQTEKPAVCYQAITKKLKICEEETGSTSIQAADSTAVNGSITPTDKKIGFLGLGLMGSGIVSNLLKMGHTVTVWNRTAEKCDLFIQEGARLGRTPAEVVSTCDITFACVSDPKAAKDLVLGPSGVLQGIRPGKCYVDMSTVDADTVTELAQVIVSRGGRFLEAPVSGNQQLSNDGMLVILAAGDRGLYEDCSSCFQAMGKTSFFLGEVGNAAKMMLIVNMVQGSFMATIAEGLTLAHVTGQSQQTLLDILNQGQLASIFLDQKCQNILQGNFKPDFYLKYIQKDLRLAIALGDAVNHPTPMAAAANEVYKRAKALDQSDNDMSAVYRAYIH", "values": [{"measurement": "Rescue of CCND1 and CCNE1 down regulation caused by NPAC shRNA", "setting": "[1]", "value": "prevents down regulation of CCND1 and CCNE1 by NPAC shRNA"}, {"measurement": "Cofactor activity: stimulation of LSD2 demethylation of H3K4me2 peptide", "setting": "LSD2", "value": "can robustly stimulate LSD2 demethylation of the longer peptide (1-44)"}]}]}
